Assay [1] addresses 14-3-3ζ (UniProt P63104). Nature of the assay: fluorescence polarisation. On the technique in general: Polarisation of emitted light reports the rotation of a fluorescent probe.
The target in assay [2] is 14-3-3ζ (UniProt P63104). Nature of the assay: fluorescence polarisation. This is another data set of the same source.
Assay [3] addresses 14-3-3ζ (UniProt P63104). Nature of the assay: fluorescence polarisation. The source holds these as a separate data set.
In assay [4] the target is 14-3-3ζ (UniProt P63104). Nature of the assay: fluorescence polarisation. The source holds these as a separate data set.
In assay [5] the target is 14-3-3ζ (UniProt P63104). Nature of the assay: fluorescence polarisation titration, FAM-labelled peptides. Particulars: for binding against the reference: reference: 240pi.
Assay [6] concerns the target 14-3-3ζ (UniProt P63104). Briefly: ITC. The settings on record: for binding against the reference: reference: 240pi.
Another assay concerns the target T1, 14-3-3ζ protein, P63104.
T1 chain: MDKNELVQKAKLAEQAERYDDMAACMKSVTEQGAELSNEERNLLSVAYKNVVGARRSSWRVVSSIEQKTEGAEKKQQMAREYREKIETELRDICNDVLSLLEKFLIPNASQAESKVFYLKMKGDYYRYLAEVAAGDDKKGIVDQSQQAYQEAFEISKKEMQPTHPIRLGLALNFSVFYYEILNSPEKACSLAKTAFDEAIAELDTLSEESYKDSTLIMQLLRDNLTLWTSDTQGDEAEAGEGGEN
Nature of the assay: native gel or EMSA + cross-linking + other: MALDI-TOF. The settings on record: remark: other sources report otherwise.

Like-named read-outs stand apart in the source and are kept apart here.

As a reminder, the Kd is the equilibrium constant for the complex coming apart. Read a low Kd as a tighter complex. One may read the koff as a measure of how fast the partners let go of each other. High values mean fast dissociation, low ones slow dissociation. On to “FAM-labeled Rnd3 C-terminal peptide (207–241) 218_240pi (from UniProt P61587 207-241)”, for which, in the assay with 14-3-3ζ [1], the Kd was 400 nM, the ka,1 (two-step fit assuming pS218 binds first; rejected by the paper) was 16.7 μM^−1 s^−1, the ka,2 (second step of the two-step fit) is 66.2 s⁻¹ and the ka,2 (two-step fit assuming pS218 binds first; rejected by the paper) turned out to be 29.8 s^−1. Further, in the assay with 14-3-3ζ [1], the kd,1 (two-step fit assuming pS218 binds first; rejected by the paper) turned out to be 53.8 s^−1, the kd,2 (two-step fit assuming pS218 binds first; rejected by the paper) worked out at 8.64 s^−1 and the koff turned out to be 9.69 s⁻¹. This molecule registered a koff with 14-3-3ζ [2] of 8.42 s⁻¹. In the assay with 14-3-3ζ [3], this molecule displayed a ka,1 (first step of the two-step fit) of 57.5 µM⁻¹ s⁻¹, a ka,2 (second step of the two-step fit) of 62.2 s⁻¹, a kd,1 (first step of the two-step fit) of 35.2 s⁻¹ and a kd,2 (second step of the two-step fit) of 38.9 s⁻¹.
The kon is a measure of how fast the partners come together. In the assay with 14-3-3ζ [1], “FAM-labeled Rnd3 C-terminal peptide (207–241) 240pi (from UniProt P61587 207-241)” gave a Ka of 290000 M⁻¹, a Kd of 3390 nM and a koff of 63.9 s⁻¹. In the assay with 14-3-3ζ [3], the Kd is 1490 nM, the koff amounted to 44.2 s⁻¹ and the kon was 2.96e+07 M⁻¹ s⁻¹.
“FAM-labeled Rnd3 C-terminal peptide (207–241) 240piFar (from UniProt P61587 207-241)”: in the assay with 14-3-3ζ [1], the Ka came out at 3.13e+06 M⁻¹, the Kd is 320 nM, the ka,1 (two-step fit assuming pS240 binds first; rejected by the paper) was 31.1 μM^−1 s^−1 and the ka,2 (two-step fit assuming pS240 binds first; rejected by the paper) is 60.2 s^−1. In the assay with 14-3-3ζ [1], this molecule registered a kd,1 (two-step fit assuming pS240 binds first; rejected by the paper) of 13 s^−1, a kd,2 (two-step fit assuming pS240 binds first; rejected by the paper) of 345 s^−1 and a koff of 10.9 s⁻¹. Besides, the koff with 14-3-3ζ [4] came to 8.02 s⁻¹. For the same molecule, in the assay with 14-3-3ζ [3], the ka,1 (first step of the two-step fit) worked out at 39.2 µM⁻¹ s⁻¹, the ka,2 (second step of the two-step fit) is 25.6 s⁻¹, the kd,1 (first step of the two-step fit) worked out at 19.9 s⁻¹ and the kd,2 (second step of the two-step fit) came to 54.5 s⁻¹.
The molecule “FAM-labeled Rnd3 C-terminal peptide (207–241) no_piFar (from UniProt P61587 207-241)” showed a Ka with 14-3-3ζ [1] of 130000 M⁻¹.
“Rnd3 207-241 (from UniProt P61587) 210_240pi”: the “binding against the reference” value with 14-3-3ζ [5] (sites S210) and with 14-3-3ζ [6] (sites S210) was “stronger” each time.
For “Rnd3 207-241 (from UniProt P61587) 218_240pi”, the “binding against the reference” value with 14-3-3ζ [6] (sites S218) is recorded as “stronger”.
As for “Rnd3 207-241 (from UniProt P61587) 240piFar”, in the assay with 14-3-3ζ [5] (reference: no_piFar, sites S240), the “other: association constant K” value is reported as “stronger; reference 0.13”.
Regarding “Rnd3 207-241 (from UniProt P61587) all_pi”, the “binding against the reference” value with 14-3-3ζ [5] (sites S210,S218) and with 14-3-3ζ [6] (sites S210,S218) was “stronger” each time.
In the assay with 14-3-3ζ [6], “Rnd3 C-terminal peptide (207–241) 210_240pi (from UniProt P61587 207-241)” displayed a dH of -36.7 kJ/mol and a stoichiometry N (peptide per 14-3-3ζ) of 0.5.
Taken in the same sequence, the figures for “Rnd3 C-terminal peptide (207–241) 210_240piFar (from UniProt P61587 207-241)” were -30.8 kJ/mol and 0.5.
With “Rnd3 C-terminal peptide (207–241) 218_240pi (from UniProt P61587 207-241)”, in the assay with 14-3-3ζ [6], the dH was -26 kJ/mol and the stoichiometry N (peptide per 14-3-3ζ) was 0.5.
Taken in the same sequence, the figures for “Rnd3 C-terminal peptide (207–241) 218_240piFar (from UniProt P61587 207-241)” were -23.4 kJ/mol and 0.5.
In the assay with 14-3-3ζ [6], “Rnd3 C-terminal peptide (207–241) 240pi (from UniProt P61587 207-241)” gave a dH of -14.8 kJ/mol and a stoichiometry N (peptide per 14-3-3ζ) of 1.
“Rnd3 C-terminal peptide (207–241) 240piFar (from UniProt P61587 207-241)”: in the assay with 14-3-3ζ [6], the dH is -14.9 kJ/mol and the stoichiometry N (peptide per 14-3-3ζ) came out at 1.
Taken in the same sequence, the figures for “Rnd3 C-terminal peptide (207–241) all_pi, triply phosphorylated (from UniProt P61587 207-241)” were -29.9 kJ/mol and 0.5.
Taken in the same sequence, the figures for “Rnd3 C-terminal peptide (207–241) all_piFar (from UniProt P61587 207-241)” were -26.2 kJ/mol and 0.5.
Regarding “Rnd3 C-terminal peptide (207–241) no_piFar, farnesylated, without phosphate (from UniProt P61587 207-241)”, the dH with 14-3-3ζ [6] was determined as 2.94 kJ/mol.

B1: 14-3-3ζ protein, P63104 1-245 (natural protein)
chain: MDKNELVQKAKLAEQAERYDDMAACMKSVTEQGAELSNEERNLLSVAYKNVVGARRSSWRVVSSIEQKTEGAEKKQQMAREYREKIETELRDICNDVLSLLEKFLIPNASQAESKVFYLKMKGDYYRYLAEVAAGDDKKGIVDQSQQAYQEAFEISKKEMQPTHPIRLGLALNFSVFYYEILNSPEKACSLAKTAFDEAIAELDTLSEESYKDSTLIMQLLRDNLTLWTSDTQGDEAEAGEGGEN
Usually stoichiometry N stands for a count of units in the complex or per binding partner. With B1, in the assay with 14-3-3ζ protein, P63104, the stoichiometry N was determined as 2.

Source of the values: PMC8179448.
